T1: MPDZ_12, O75970
T1 sequence (O75970 1857-1958, limits assumed, looked up): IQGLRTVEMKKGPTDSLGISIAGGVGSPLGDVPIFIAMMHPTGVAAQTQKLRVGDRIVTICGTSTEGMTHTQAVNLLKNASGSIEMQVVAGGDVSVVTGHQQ

T2: RAPGEF6, Q8TEU7
T2 sequence (Q8TEU7 525-625, limits assumed, looked up): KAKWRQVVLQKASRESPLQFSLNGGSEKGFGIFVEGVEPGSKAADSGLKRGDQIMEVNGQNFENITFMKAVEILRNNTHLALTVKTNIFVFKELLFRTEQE

T3: APBA1_2, Q02410
T3 sequence (Q02410 742-832, limits assumed, looked up): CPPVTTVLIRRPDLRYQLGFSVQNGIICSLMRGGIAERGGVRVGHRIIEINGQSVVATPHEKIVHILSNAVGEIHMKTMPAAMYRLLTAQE

T4: LIN7A, O14910
T4 sequence (O14910 103-200, limits assumed, looked up): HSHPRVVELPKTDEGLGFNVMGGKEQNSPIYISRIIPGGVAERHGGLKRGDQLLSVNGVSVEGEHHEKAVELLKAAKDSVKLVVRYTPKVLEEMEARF

T5: NHERF3_4, Q5T2W1
T5 sequence (Q5T2W1 373-468, limits assumed, looked up): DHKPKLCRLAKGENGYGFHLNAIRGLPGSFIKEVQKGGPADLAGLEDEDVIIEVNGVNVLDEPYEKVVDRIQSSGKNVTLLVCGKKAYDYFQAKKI

T6: LNX2_3, Q8N448
T6 sequence (Q8N448 463-564, limits assumed, looked up): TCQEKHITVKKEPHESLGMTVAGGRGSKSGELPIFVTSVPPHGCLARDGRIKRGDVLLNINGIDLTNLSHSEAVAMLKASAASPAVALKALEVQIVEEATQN

T7: PDZD2_2, O15018
T7 sequence (O15018 329-429, limits assumed, looked up): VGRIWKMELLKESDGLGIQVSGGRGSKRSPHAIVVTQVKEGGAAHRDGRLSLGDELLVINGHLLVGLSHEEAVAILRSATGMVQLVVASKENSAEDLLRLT

T8: SHANK1, Q9Y566
T8 sequence (Q9Y566 658-767, limits assumed, looked up): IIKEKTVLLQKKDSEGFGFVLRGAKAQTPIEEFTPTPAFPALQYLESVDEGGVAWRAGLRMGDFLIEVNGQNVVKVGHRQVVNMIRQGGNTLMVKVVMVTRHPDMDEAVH

T9: CARD11, Q9BXL7
T9 sequence (Q9BXL7 662-765, limits assumed, looked up): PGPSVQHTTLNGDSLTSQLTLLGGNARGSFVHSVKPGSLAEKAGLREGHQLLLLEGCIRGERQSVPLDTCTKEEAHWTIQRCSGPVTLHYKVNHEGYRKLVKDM


Experiments:
Assay in all cases: holdup assay
Set-up in all cases: key: below the threshold = too weak to quantify, mostly under pKd 3.1 to 4
Conditions in all cases: plain residues with an end cap or a label only (N-terminal biotin on a linker: ado-ado)
GRIP2_6, Q9C0E4 = molecular target: GRIP2_6, Q9C0E4
GRIP2_4, Q9C0E4 = molecular target: GRIP2_4, Q9C0E4
DLG5_1, Q8TDM6 = molecular target: DLG5_1, Q8TDM6
TJP2_1, Q9UDY2 = molecular target: TJP2_1, Q9UDY2
GRASP, Q7Z6J2 = molecular target: GRASP, Q7Z6J2
HTRA2, O43464 = molecular target: HTRA2, O43464
SCRIB_1, Q14160 = molecular target: SCRIB_1, Q14160
MPDZ_12, O75970 = molecular target: T1, MPDZ_12, O75970
PARD3_3, Q8TEW0 = molecular target: PARD3_3, Q8TEW0
DLG4_3, P78352 = molecular target: DLG4_3, P78352
LNX1_3, Q8TBB1 = molecular target: LNX1_3, Q8TBB1
Inadl_9, Q8NI35 = molecular target: Inadl_9, Q8NI35
NHERF4_1, Q86UT5-2 = molecular target: NHERF4_1, Q86UT5-2
Inadl_3, Q8NI35 = molecular target: Inadl_3, Q8NI35
RAPGEF6, Q8TEU7 = molecular target: T2, RAPGEF6, Q8TEU7
APBA1_2, Q02410 = molecular target: T3, APBA1_2, Q02410
LIMK2, P53671 = molecular target: LIMK2, P53671
LIN7A, O14910 = molecular target: T4, LIN7A, O14910
NHERF3_4, Q5T2W1 = molecular target: T5, NHERF3_4, Q5T2W1
LNX2_3, Q8N448 = molecular target: T6, LNX2_3, Q8N448
NHERF2_2, Q15599 = molecular target: NHERF2_2, Q15599
PDZD2_2, O15018 = molecular target: T7, PDZD2_2, O15018
SNX27, Q96L92 = molecular target: SNX27, Q96L92
MAGI2_2, Q86UL8 = molecular target: MAGI2_2, Q86UL8
Inadl_8, Q8NI35 = molecular target: Inadl_8, Q8NI35
IL16_4, Q14005 = molecular target: IL16_4, Q14005
SHANK1, Q9Y566 = molecular target: T8, SHANK1, Q9Y566
CARD11, Q9BXL7 = molecular target: T9, CARD11, Q9BXL7
MAGI1_1, Q96QZ7 = molecular target: MAGI1_1, Q96QZ7
Sequence of MAGI1_1, Q96QZ7 (Q96QZ7 1-106): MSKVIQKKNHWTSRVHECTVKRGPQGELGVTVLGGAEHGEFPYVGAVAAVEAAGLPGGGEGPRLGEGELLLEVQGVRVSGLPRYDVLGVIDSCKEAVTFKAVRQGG

Sequence of NHERF2_2, Q15599 (Q15599 142-238): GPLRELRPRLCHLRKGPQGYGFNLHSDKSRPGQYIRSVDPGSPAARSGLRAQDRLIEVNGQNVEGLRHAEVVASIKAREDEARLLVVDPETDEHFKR
Sequence of MAGI2_2, Q86UL8 (Q86UL8 410-522): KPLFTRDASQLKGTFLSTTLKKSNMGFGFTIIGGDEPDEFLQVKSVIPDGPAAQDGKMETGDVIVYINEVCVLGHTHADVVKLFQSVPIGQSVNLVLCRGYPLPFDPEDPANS
Sequence of LNX1_3, Q8TBB1 (Q8TBB1 500-596): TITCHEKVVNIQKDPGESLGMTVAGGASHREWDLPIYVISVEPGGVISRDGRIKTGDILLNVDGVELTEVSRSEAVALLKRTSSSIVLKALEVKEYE
Sequence of LIMK2, P53671 (P53671 143-248): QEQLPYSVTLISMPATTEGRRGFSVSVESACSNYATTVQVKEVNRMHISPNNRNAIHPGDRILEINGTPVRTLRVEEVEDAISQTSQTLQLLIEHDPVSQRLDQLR
Sequence of GRASP, Q7Z6J2 (Q7Z6J2 96-193): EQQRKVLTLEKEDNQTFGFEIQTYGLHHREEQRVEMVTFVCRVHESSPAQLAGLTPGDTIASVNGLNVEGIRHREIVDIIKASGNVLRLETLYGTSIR
Sequence of Inadl_8, Q8NI35 (Q8NI35 1425-1530): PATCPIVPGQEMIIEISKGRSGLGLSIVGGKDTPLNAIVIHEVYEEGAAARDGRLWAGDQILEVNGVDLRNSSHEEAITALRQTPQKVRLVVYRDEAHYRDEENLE
Sequence of GRIP2_4, Q9C0E4 (Q9C0E4 446-548): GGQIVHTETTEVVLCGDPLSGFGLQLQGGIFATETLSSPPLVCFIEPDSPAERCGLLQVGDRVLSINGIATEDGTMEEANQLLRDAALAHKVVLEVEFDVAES
Sequence of GRIP2_6, Q9C0E4 (Q9C0E4 648-740): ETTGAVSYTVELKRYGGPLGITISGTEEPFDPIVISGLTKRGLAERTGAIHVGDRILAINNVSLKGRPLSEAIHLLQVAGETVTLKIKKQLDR
Sequence of PARD3_3, Q8TEW0 (Q8TEW0 582-685): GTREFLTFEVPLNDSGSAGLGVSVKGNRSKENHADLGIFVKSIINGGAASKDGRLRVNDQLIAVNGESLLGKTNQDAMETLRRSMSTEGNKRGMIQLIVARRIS
Sequence of IL16_4, Q14005 (Q14005 1229-1329): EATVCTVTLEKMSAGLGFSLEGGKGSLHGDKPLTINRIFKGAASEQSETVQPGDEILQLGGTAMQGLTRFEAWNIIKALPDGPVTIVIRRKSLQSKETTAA
Sequence of DLG4_3, P78352 (P78352 306-403): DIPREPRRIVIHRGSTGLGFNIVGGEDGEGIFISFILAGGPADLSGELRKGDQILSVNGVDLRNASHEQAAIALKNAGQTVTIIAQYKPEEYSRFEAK
Sequence of Inadl_9, Q8NI35 (Q8NI35 1530-1615): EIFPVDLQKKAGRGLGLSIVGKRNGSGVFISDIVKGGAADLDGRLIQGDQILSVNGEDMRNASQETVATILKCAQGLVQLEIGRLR
Sequence of HTRA2, O43464 (O43464 355-458): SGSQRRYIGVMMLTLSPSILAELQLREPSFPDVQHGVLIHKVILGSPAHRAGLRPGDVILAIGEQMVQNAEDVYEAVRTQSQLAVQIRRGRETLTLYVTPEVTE
Sequence of TJP2_1, Q9UDY2 (Q9UDY2 24-128): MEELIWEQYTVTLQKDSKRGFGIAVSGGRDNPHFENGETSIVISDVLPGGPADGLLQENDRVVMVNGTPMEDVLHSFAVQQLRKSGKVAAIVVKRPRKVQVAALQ
Sequence of SCRIB_1, Q14160 (Q14160 718-814): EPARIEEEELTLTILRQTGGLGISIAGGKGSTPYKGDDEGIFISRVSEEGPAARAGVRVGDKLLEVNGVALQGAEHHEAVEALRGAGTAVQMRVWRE
Sequence of Inadl_3, Q8NI35 (Q8NI35 359-469): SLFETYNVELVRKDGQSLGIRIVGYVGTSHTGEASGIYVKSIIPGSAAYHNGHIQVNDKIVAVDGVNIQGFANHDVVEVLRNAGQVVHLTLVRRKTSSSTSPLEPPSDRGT
Sequence of NHERF4_1, Q86UT5-2 (Q86UT5 other isoform, or with tags, fused parts or gaps): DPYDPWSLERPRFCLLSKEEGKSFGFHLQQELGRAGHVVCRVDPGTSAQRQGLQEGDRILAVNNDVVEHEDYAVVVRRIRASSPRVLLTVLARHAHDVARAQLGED
Sequence of DLG5_1, Q8TDM6 (Q8TDM6 617-713): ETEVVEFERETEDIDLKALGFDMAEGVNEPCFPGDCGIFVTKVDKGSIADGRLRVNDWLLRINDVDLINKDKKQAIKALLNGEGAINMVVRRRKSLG

Row | pKd (GRIP2_6, Q9C0E4) | pKd (GRIP2_4, Q9C0E4) | pKd (DLG5_1, Q8TDM6) | pKd (TJP2_1, Q9UDY2) | pKd (GRASP, Q7Z6J2) | pKd (HTRA2, O43464) | pKd (SCRIB_1, Q14160) | pKd (MPDZ_12, O75970) | pKd (PARD3_3, Q8TEW0) | pKd (DLG4_3, P78352) | pKd (LNX1_3, Q8TBB1) | pKd (Inadl_9, Q8NI35) | pKd (NHERF4_1, Q86UT5-2) | pKd (Inadl_3, Q8NI35) | pKd (RAPGEF6, Q8TEU7) | pKd (APBA1_2, Q02410) | pKd (LIMK2, P53671) | pKd (LIN7A, O14910) | pKd (NHERF3_4, Q5T2W1) | pKd (LNX2_3, Q8N448) | Binder | other results
1 | below the threshold | below the threshold | below the threshold | 3.97 | 4.3 | below the threshold | 3.56 | below the threshold | below the threshold | 4.85 | below the threshold | below the threshold | below the threshold | below the threshold | below the threshold | 3.73 | below the threshold | below the threshold | 3.5 | below the threshold | SMLNRRTTPV [CACNG4, Q9UBN1] | pKd (NHERF2_2, Q15599): below the threshold; pKd (PDZD2_2, O15018): below the threshold; pKd (SNX27, Q96L92): 4.93; pKd (MAGI2_2, Q86UL8): 5.03; pKd (Inadl_8, Q8NI35): 4.29; pKd (IL16_4, Q14005): below the threshold; pKd (SHANK1, Q9Y566): below the threshold; pKd (CARD11, Q9BXL7): below the threshold; pKd (MAGI1_1, Q96QZ7): below the threshold
2 | 4.47 | below the threshold | below the threshold | 3.69 | 5.04 | below the threshold | 4.69 | 4.41 | below the threshold | 3.7 | 3.64 | 4.09 | 3.68 | 4.66 | below the threshold | 4.07 | below the threshold | 3.66 | 4.37 | below the threshold | RQSILFSTEV [BCR, P11274] | pKd (NHERF2_2, Q15599): below the threshold; pKd (PDZD2_2, O15018): 4.76; pKd (SNX27, Q96L92): 4.89; pKd (MAGI2_2, Q86UL8): 3.7; pKd (Inadl_8, Q8NI35): 4.49; pKd (IL16_4, Q14005): 3.54; pKd (SHANK1, Q9Y566): 4.58; pKd (CARD11, Q9BXL7): below the threshold; pKd (MAGI1_1, Q96QZ7): below the threshold
3 | below the threshold | below the threshold | below the threshold | below the threshold | 4.13 | below the threshold | below the threshold | below the threshold | below the threshold | below the threshold | below the threshold | below the threshold | 4.37 | below the threshold | below the threshold | below the threshold | below the threshold | below the threshold | below the threshold | below the threshold | LSEFKAMDSF [CTNNA2, P26232] | pKd (NHERF2_2, Q15599): below the threshold; pKd (PDZD2_2, O15018): below the threshold; pKd (SNX27, Q96L92): below the threshold; pKd (MAGI2_2, Q86UL8): below the threshold; pKd (Inadl_8, Q8NI35): below the threshold; pKd (IL16_4, Q14005): below the threshold; pKd (SHANK1, Q9Y566): below the threshold; pKd (CARD11, Q9BXL7): below the threshold; pKd (MAGI1_1, Q96QZ7): below the threshold
4 | below the threshold | below the threshold | below the threshold | below the threshold | 3.94 | below the threshold | below the threshold | 3.52 | below the threshold | below the threshold | below the threshold | below the threshold | 3.8 | below the threshold | below the threshold | below the threshold | below the threshold | 3.49 | below the threshold | 3.53 | EEDTAEKDEL [HSPA5, P11021] | pKd (NHERF2_2, Q15599): 3.7; pKd (PDZD2_2, O15018): 3.53; pKd (SNX27, Q96L92): 3.61; pKd (MAGI2_2, Q86UL8): 3.48; pKd (Inadl_8, Q8NI35): below the threshold; pKd (IL16_4, Q14005): 3.51; pKd (SHANK1, Q9Y566): below the threshold; pKd (CARD11, Q9BXL7): below the threshold; pKd (MAGI1_1, Q96QZ7): 3.51
5 | below the threshold | below the threshold | below the threshold | below the threshold | 3.87 | below the threshold | 4.18 | below the threshold | 3.87 | below the threshold | below the threshold | below the threshold | 3.9 | below the threshold | below the threshold | below the threshold | below the threshold | below the threshold | below the threshold | below the threshold | PELESKESVL [SLC1A4, P43007] | pKd (NHERF2_2, Q15599): 4.4; pKd (PDZD2_2, O15018): 4.16; pKd (SNX27, Q96L92): 5.43; pKd (MAGI2_2, Q86UL8): below the threshold; pKd (Inadl_8, Q8NI35): below the threshold; pKd (IL16_4, Q14005): below the threshold; pKd (SHANK1, Q9Y566): below the threshold; pKd (CARD11, Q9BXL7): below the threshold; pKd (MAGI1_1, Q96QZ7): below the threshold

— publication PMC9482650, “Quantitative fragmentomics allow affinity mapping of interactomes” (Nature Communications, 2022)
